The text below walks through data of PMC4216055 (Carcinogenesis, 2014).

This data set concerns the molecule itself. Description: cross-linking.

Numbering of substitutions follows the chain as printed.

B1: Human recombinant granulin-epithelin precursor (rGEP) (natural protein, UniProt P28799 14-593, looked up)
chain: LVAGTRCPDGQFCPVACCLDPGGASYSCCRPLLDKWPTTLSRHLGGPCQVDAHCSAGHSCIFTVSGTSSCCPFPEAVACGDGHHCCPRGFHCSADGRSCFQRSGNNSVGAIQCPDSQFECPDFSTCCVMVDGSWGCCPMPQASCCEDRVHCCPHGAFCDLVHTRCITPTGTHPLAKKLPAQRTNRAVALSSSVMCPDARSRCPDGSTCCELPSGKYGCCPMPNATCCSDHLHCCPQDTVCDLIQSKCLSKENATTDLLTKLPAHTVGDVKCDMEVSCPDGYTCCRLQSGAWGCCPFTQAVCCEDHIHCCPAGFTCDTQKGTCEQGPHQVPWMEKAPAHLSLPDPQALKRDVPCDNVSSCPSSDTCCQLTSGEWGCCPIPEAVCCSDHQHCCPQGYTCVAEGQCQRGSEIVAGLEKMPARRASLSHPRDIGCDQHTSCPVGQTCCPSLGGSWACCQLPHAVCCEDRQHCCPAGYTCNVKARSCEKEVVSAQPATFLARSPHVGVKDVECGEGHFCHDNQTCCRDNRQGWACCPYRQGVCCADRRHCCPAGFRCAARGTKCLRREAPRWDAPLRDPALRQLL
modifications: N-glycan (removed by PNGase F only for the gel analysis)
For B1, the binding result was “binds”.

B2: rGEP-3A (rGEP with alanine mutations at RRH(555-557)) (natural protein, human, UniProt P28799 14-593, looked up)
chain: B1 chain with R542A, R543A, H544A
Consider B2, for which the binding result is on record as “binds”.
